Test results taken from the supplement of paper PMC11780869.

Tested on: Bacillus subtilis
Assay: cleaved RNA product abundance (RNA/gDNA barcode ratio) relative to median wild-type variant (ratio to wild type); higher = more accumulation of the downstream cleavage product
Summary of the method: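 Truncated aprE or tetM reporter mRNAs with barcoded RNase Y cleavage-site windows, mutagenized from oligos at a 9% error rate, sat in the B. subtilis chromosome. Cells grew in LB at 37°C from OD600 0.0003 to 0.3. Gel-selected cleaved RNA was reverse transcribed and its barcodes sequenced with those from genomic DNA, collapsing by UMI. Cleaved product abundance equals the RNA:gDNA barcode ratio per construct over the median construct with the unmutated site.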

[1] = experiment (reporter, strain, medium): exp 8a: truncated aprE reporter, strain BJT201 with 2% xylose (RNase J1 expressed), cleavage site: glnRA (positions -5 to +31 mutated)
[2] = experiment (reporter, strain, medium): exp 2b: truncated aprE reporter, strain BJT200, cleavage site: cggR-gapA (positions -7 to +36 mutated)
[3] = experiment (reporter, strain, medium): exp 4a: truncated aprE reporter, strain BJT201 with 2% xylose (RNase J1 expressed), cleavage site: cggR-gapA (positions -7 to +36 mutated)
[4] = experiment (reporter, strain, medium): exp 6: tetM reporter, strain 168, cleavage site: cggR-gapA (positions -7 to +36 mutated)

| Sequence | cleaved RNA product abundance [1] | cleaved RNA product abundance [3] | further results |
| --- | --- | --- | --- |
| CGACATGTCCCGCTTCTTTCATTAATCCGTTAGAAACTGTTTTGCTGTATACATTTACCTTTTAAGAGGAGGAAT | 0.085 | – | – |
| CGACATGTCCCGCTTCTTTCATTAATCCGTTAGCAACTGTTATGGTATATACATTTACCTTTTAAGAGGAGGAAT | 0.161 | – | – |
| ACAGACGAAGGAGCCGCAAAGAAGTTATTAAGGGATGAATAATCCTTCAATAAAAATATCTCTCACTTATTTAAA | – | – | cleaved RNA product abundance [2]: 0.185 |
| ACAGACGAAGGAGCCGCAAAGAAGTTATTAAGGGATGAACAATCACTCAATATAAATATCTCTCACTTATTTAAA | – | 0.105 | – |
| ACAGACGAAGGAGCCGCACAGAAGTTATTAAGGGATGAATAATCCCTGAATATAAATATCTCTCACTTATTTAAA | – | 0.523 | – |
| CGACATGTCCCGCTTCTTTCATTAATCCATTAGCAACTGTTTTGATATATACAGTTACCTTTTAAGAGGAGGAAT | 0.247 | – | – |
| CGACATGTCCCGCTTCTTTCATTAATTCGTTAGCAACTGTTTTCCTATATACATTTACCTTTTAAGAGGAGGAAT | 0.485 | – | – |
| ACAGACGAAGGAGCCGCAAAGAAGTTATTAACTGATGAATAATCCCTCAATATAAATATCTCTCACTTATTTAAA | – | 0.118 | cleaved RNA product abundance [2]: 0.0892 |
| ACAGACGAAGGAGCCGCAAAGAAGTTATTACGGGATGAATGATCCCTCAATATAAATATCTCTCACTTATTTAAA | – | 0.247 | – |
| ACAGACGAAGGAGCCGCAAAGAAGTTATTAAGGGATGAATAATTCCTCACTATAAATATCTCTCACTTATTTAAA | – | 0.156 | cleaved RNA product abundance [2]: 0.132 |
| CGACATGTCCCGCTTCTTTCATTAATCCGTTAGAAACTGTTTTGCTATACACATTTACCTTTTAAGAGGAGGAAT | 0.253 | – | – |
| CGACATGTCCCGCTTCTTTCATTAATCCGTTAGCAAATGTTTTGCTATATACTTTTACCTTTTAAGAGGAGGAAT | 1.13 | – | – |
| ACAGACGAAGGAGCCGCAAAGAAGTTATTAAGCGATGAATAATCCCTCAATAAAAATATCTCTCACTTATTTAAA | – | 0.0528 | – |
| CGACATGTCCCGCTTCTTTCATTAATCCGTTAGCAACTGTTTTGCTATATACTTATACCTTTTAAGAGGAGGAAT | 0.926 | – | – |
| ACAGACGAAGGAGCCCCAAAGAAGTTATTAAGGGATGAATAATCCCTCAATATAAATATCTCTCACTTATTTAAA | – | – | cleaved RNA product abundance [4]: 1.36 |
| ACAGACGAAGGAGCCGCAAAGAAGTTATTAAGGGTTGAATAATCCCTCAACATAAATATCTCTCACTTATTTAAA | – | 0.237 | – |
| ACAGACGAAGGAGCCGCAAAGTAGTTATTAAGGGAGGAATAATCCCTCAATATAAATATCTCTCACTTATTTAAA | – | 0.557 | – |
| ACAGACGAAGGAGCCGCAAAGAAGTTATTAAGGGATGAATTATCCCTCATTATAAATATCTCTCACTTATTTAAA | – | 0.32 | – |
| ACAGACGAAGGAGCCGCAAAGAAGTTATTAAGGGACGAATAATCACTCAATATAAATATCTCTCACTTATTTAAA | – | 0.0856 | – |
| ACAGACGAAGGAGCCGCAAAGAAGTTATTAAGGGATGAATAATCCCTCGATATAAATATCTCTCACTTATTTAAA | – | 0.419 | cleaved RNA product abundance [2]: 0.348; cleaved RNA product abundance [4]: 0.589 |
| ACAGACGAAGGAGCCGCAAAGAAGTTATTAAGCGATGAATAATCCCCCAATATAAATATCTCTCACTTATTTAAA | – | 0.13 | cleaved RNA product abundance [2]: 0.0922 |

| Sequence | cleaved RNA product abundance [1] | cleaved RNA product abundance [3] | further results |
| --- | --- | --- | --- |
| CGACATGTCCCGCTTCTTTCATTATTCCGTTAGCAACTGTTGTGCTATATACATTTACCTTTTAAGAGGAGGAAT | 0.941 | – | – |
| ACAGACGAAGGAGCCGCAAAGAAGTTATTAAGCCATGAATAATCCCTCAATATAAATATCTCTCACTTATTTAAA | – | 0.106 | cleaved RNA product abundance [4]: 0.058 |
| CGACATGTCCCGCTTCTTTCATTAATCCGTTAGCAACTGTTTTTCTATATTCATTTACCTTTTAAGAGGAGGAAT | 0.189 | – | – |
| ACAGACGAAGGAGCCGCACAGAAGTTATTAAGGGATGAATAATCCCTCAAAATAAATATCTCTCACTTATTTAAA | – | 0.337 | – |
| ACAGACGAAGGAGCCGCAAAGAAGTTATTAAGTGATGAAGAATCCCTCAATATAAATATCTCTCACTTATTTAAA | – | 0.0723 | cleaved RNA product abundance [2]: 0.0943 |
| CGACATGTCCCGCTTCTTTCATTAATTCGTTAGCAACTGTTTTGCTATATACATTTACGTTTTAAGAGGAGGAAT | 0.881 | – | – |
| ACAGACGAAGGAGCCGCAAAGAAGTTATTAAGGGACGAATAATCCCTCAATCTAAATATCTCTCACTTATTTAAA | – | 0.0944 | – |
| CGACATGTCCCGCTTCTTTCATTAATTCGTTAGCAACTATTTTGCTATATACATTTACCTTTTAAGAGGAGGAAT | 1.64 | – | – |
| ACAGACGAAGGAGCCGCAAATAAGTAATTAAGGGATGAATAATCCCTCAATATAAATATCTCTCACTTATTTAAA | – | 0.339 | cleaved RNA product abundance [2]: 0.246 |
| ACAGACGAAGGAGCCGCAAAGAGGTTATTAAGGCATGAATAATCCCTCAATATAAATATCTCTCACTTATTTAAA | – | – | cleaved RNA product abundance [2]: 0.0794 |
| CGACATGTCCCGCTTCTTTCATTAATCTGTTAGCAACTGTTTTGCTAAATACATTTACCTTTTAAGAGGAGGAAT | 1.01 | – | – |
| CGACATGTCCCGCTTCTTTCATTACTCCGTTAGCAACTGTTTTGCTTTATACATATACCTTTTAAGAGGAGGAAT | 0.58 | – | – |
| CGACATGTCCCGCTTCTTTCATTATTCCGTTAGCAACTATTTTGCTATATACATTTACCTTTTAAGAGGAGGAAT | 1.91 | – | – |
| ACAGACGAAGGAGCCGCAAAGAAGTTATTTAGGGATGAATAATACCTCAATATAAATATCTCTCACTTATTTAAA | – | 0.141 | – |
| ACAGACGAAGGAGCCGCACAGAATTTATTAAGGGATGAATAATCCCTCAATATAAATATCTCTCACTTATTTAAA | – | 0.488 | cleaved RNA product abundance [2]: 0.544 |
| CGACATGTCCCGCTTCTTTCATTAATCCGTCAGCAACTGTTTTGCTATATACATTTACCATTTAAGAGGAGGAAT | 0.704 | – | – |
| CGACATGTCCCGCTTCTTTCATTAATCCGTTAGGAACTGTTTTGCAATATACATTTACCTTTTAAGAGGAGGAAT | 0.342 | – | – |
| CGACATGTCCCGCTTCTTTCATTAGTCCGTTACCAACTGTTTTGCTATATACATTTACCTTTTAAGAGGAGGAAT | 0.248 | – | – |
| ACAGACGAAGGAGCCGCAAAGAAGTTATTAAGGGATGAATAATCCTTAAATATAAATATCTCTCACTTATTTAAA | – | 0.581 | – |
| ACAGACGAAGGAGCCGCAAAGAAGTTATTAAGGGATGATTAATCCCTCAATATTAATATCTCTCACTTATTTAAA | – | – | cleaved RNA product abundance [2]: 0.164 |
| CGACATGTCCCGCTTCTTTCATTAATCTGTAAGCAACTGTTTTGCTATATACATTTACCTTTTAAGAGGAGGAAT | 0.539 | – | – |

| Sequence | cleaved RNA product abundance [1] | cleaved RNA product abundance [3] | further results |
| --- | --- | --- | --- |
| CGACATGTCCCGCTTCTTTCATTAATTCGTTAGCAATTGTTTTGCTATATACATTTACCTTTTAAGAGGAGGAAT | 1.67 | – | – |
| ACAGACGAAGGAGCCGCAAAGAAGTTATTAAGAGATGAATAGTCCCTCAATATAAATATCTCTCACTTATTTAAA | – | 0.136 | cleaved RNA product abundance [2]: 0.0992 |
| ACAGACGAAGGAGCCGCAAAGAAAGTTATTAAGGGATGAATAATCCCTCAATATAAATATCTCTCACTTATTTAA | – | 0.775 | – |
| ACAGACGAAGGAGCCGCAAAGAAGTTATTAAGGTATGAATAATCCCTCAACATAAATATCTCTCACTTATTTAAA | – | 0.11 | – |
| CGACATGTCCCGCTTCTTTCATTAATCCGTTAGAAATTGTTTTGCTATATACATTTACCTTTTAAGAGGAGGAAT | 0.342 | – | – |
| ACAGACGAAGGAGCCGCAAAGAAGTTATTAAGGGATGATTAATCACTCAATATAAATATCTCTCACTTATTTAAA | – | – | cleaved RNA product abundance [2]: 0.152 |
| ACAGACGAAGGAGCCGCAAAGAAGTTATTAAGGAATTAATAATCCCTCAATATAAATATCTCTCACTTATTTAAA | – | 0.137 | cleaved RNA product abundance [2]: 0.103 |
| ACAGACGAAGGAGCCGCAAAGAAGTTATTAAGGAATGAATAATCCATCAATATAAATATCTCTCACTTATTTAAA | – | 0.124 | cleaved RNA product abundance [2]: 0.0915 |
| CGACATGTCCCGCTTCTTTCATTACTCCGTTAGCAACTGTTTTCCTATATACATTTACCTTTTAAGAGGAGGAAT | 0.679 | – | – |
| ACAGACGAAGGAGCCGCAAAGATGTTATTAAAGGATGAATAATCCCTCAATATAAATATCTCTCACTTATTTAAA | – | 0.129 | – |
| ACAGACGAAGGAGCCGTAAAGAAGTTATTAAGGCATGAATAATCCCTCAATATAAATATCTCTCACTTATTTAAA | – | – | cleaved RNA product abundance [4]: 0.143 |
| CGACATGTCCCGCTTCTTTCATTAATCCGTTAGCAATTGTTTTGCTATATACATTGACTTTTTAAGAGGAGGAAT | 1.33 | – | – |
| ACAGACGAAGGAGCCGCAAAGAAGTTATTAAGGGATGAATAATCACTCAATATAAATACCTCTCACTTATTTAAA | – | 0.061 | – |
| CGACATGTCCCGCTTCTTTCATTAATCCCTTAGCAACTGTTTTGCTATATTCATTTACCTTTTAAGAGGAGGAAT | 0.153 | – | – |
| ACAGACGAAGGAGCCGCAAAGATGTTATTAAGGGATGAATAATCCCTCAATATAAATATCTCTCACTTATTTAAA | – | 0.996 | cleaved RNA product abundance [2]: 0.938; cleaved RNA product abundance [4]: 1.01 |
| ACAGACGAAGGAGCCGCATAGAAGTTATTAAGGGATGAATAATCCCTCAATTTAAATATCTCTCACTTATTTAAA | – | – | cleaved RNA product abundance [2]: 0.195 |
| ACAGACGAAGGAGCCGCAAAGAAGATATTAAGGGAGGAATAATCCCTCAATATAAATATCTCTCACTTATTTAAA | – | 0.643 | – |
| ACAGACGAAGGAGCCGCAATGAAGATATTAAGGCATGAATAATCCCTCAATATAAATATCTCTCACTTATTTAAA | – | 0.138 | – |
| ACAGACGAAGGAGCCGCAAAGAACTTATTAAGGGATAAATAATCCCTCAATATAAATATCTCTCACTTATTTAAA | – | 0.477 | cleaved RNA product abundance [2]: 0.556 |
